PMC4826287 (Journal of molecular biology, 2015)
Blank lines part the entries; values can stand above or below the molecule they belong to.

B3: SPOP^MATH (MATH domain of Speckle-type POZ protein, residues 28-166) (domain or fragment, UniProt O43791 28-166, looked up)
chain: KVVKFSYMWTINNFSFCREEMGEVIKSSTFSSGANDKLKWCLRVNPKGLDEESKDYLSLYLLLVSCPKSEVRAKFKFSILNAKGEETKAMESQRAYRFVQGKDWGFKKFIRRDFLLDEANGLLPDDKLTLFCEVSVVQD

Columns and labels:
[1] = biological target: B3; assay: fluorescence polarisation
[2] = biological target: B3; assay: BLI
[3] = biological target: T1, SPOP^MATH-BTB (SPOP construct encompassing residues 28-337) (UniProt O43791 28-337); assay: BLI
[4] = biological target: SPOP^MATH-BTB-BACK (SPOP construct encompassing residues 28-359) (UniProt O43791 28-359); assay: BLI
[5] = biological target: SPOP^MATH (Homo sapiens, UniProt O43791); assay: Sedimentation velocity AUC, stoichiometry of Gli3^1-90/SPOP^MATH complex; format: binding; details: SV AUC, excess SPOP^MATH (Gli3^1-90 156 μM / SPOP^MATH 525 μM), pH 6.0, 20 °C, size-and-shape distribution analysis
[6] = biological target: B3; assay: fluorescence polarisation; remark: listed apart in the source
[7] = biological target: T1, SPOP^MATH-BTB (SPOP construct …); assay: fluorescence polarisation
[8] = biological target: T2, Gli3^1-90 (90-residue N-terminal Gli3 fragment), His tag cleaved (UniProt P10071 1-90); assay: AUC
T2 sequence (looked up): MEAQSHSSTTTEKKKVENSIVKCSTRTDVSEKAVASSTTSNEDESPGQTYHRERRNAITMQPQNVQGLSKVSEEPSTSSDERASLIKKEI

- Kd [1]: 7.7 µM
Molecule: Ac-ENLACDEVTSTTSSST-NH2 [pPuc (peptide derived from the Drosophila melanogaster protein Puckered, residues 91-106)]

- Kd [1]: 560 µM
Molecule: Ac-KVSEEPSTSSDERA-NH2 [SBM3 (Gli3 peptide, SPOP-binding motif 3)]

- Kd [1]: 80 µM
Molecule: Ac-EKAVASSTTSNEDES-NH2 [SBM2 (Gli3 peptide, SPOP-binding motif 2)]

More lines, now with the values behind:

Molecule: Ac-MEAQSHSSTTTEKK-NH2 [SBM1 (Gli3 peptide, SPOP-binding motif 1)]
- Kd [1]: ~4100 µM

B1: His6-Gli3^1-90 (N-terminal His6 tag left on) (domain or fragment, UniProt P10071 1-90, looked up)
chain: MEAQSHSSTTTEKKKVENSIVKCSTRTDVSEKAVASSTTSNEDESPGQTYHRERRNAITMQPQNVQGLSKVSEEPSTSSDERASLIKKEI
- Kd [2]: 21 µM
- Kd [3]: 28 µM
- Kd [4]: 1500 nM

B2: Gli3^1-90: 90-residue N-terminal Gli3 fragment, recombinant, intrinsically disordered (protein)
chain: MEAQSHSSTTTEKKKVENSIVKCSTRTDVSEKAVASSTTSNEDESPGQTYHRERRNAITMQPQNVQGLSKVSEEPSTSSDERASLIKKEI
modifications: left off: His6, N-terminal, cleaved
- number of MATH domain molecules bound to 1 Gli3^1-90 molecule [5]: up to 3

Molecule: ENLACDEVTSTTSSST (not fully specified; fluorescein on the N-terminus; C-terminal amide) [F-pPuc (N-terminally fluorescently labeled Puc peptide)]
- Kd [6]: ~6 µM
- Kd [7]: ~6 µM

Molecule: B3
- stoichiometry N [8]: ≤ 3 SPOP^MATH per Gli3^1-90
